# Experimental data published in a protein production outcome set (Wang et al. 2014).
# Assay: label from the status in PepcDB records
# 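Also: failed if final PepcDB status was selected cloned or expressed and not failed if soluble or beyond.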
row,Sequence,protein production
1,MTYKDYTGLDRTELLSKVRHMMSDKRFNHVLGVERAAIELAERYGYDKEKAGLAALLHDYAKELSDDEFLRLIDKYQPDPDLKKWGNNIWHGLVGIYKIQEDLAIKDQDILAAIAKHTVGSAQMSTLDKIVYVADYIEHNRDFPGVEEARELAKVDLNKAVAYETARTVAFLASKAQPIYPKTIETYNAYIPYLD,not failed
2,MTYKVFIDGEAGTTGLQIRARLEGRDDIRLITLGDADRKDTRARLAAFDAADVGILCLPDAAAVEIVAQLAGTGTRLIDASTAHRVDPGWVFGFAELDNDLRARIAGGQFVSNPGCYSTGAIALLHPLVKRGLIAADQALAINAISGYSGGGKAMIAEFESGKTDGPFVYATEQRHKHLPEIVAHAGLTRQPVFVPSVGPYEQGMIVQVPLPFVEPGQGAAIEAALADHYATSRFVSVVSPDHYGARIDPRRLNGTNQLELSVHGNLDTGGAVLLALLDNLGKGASGAAVQNLNIMLGLDEGLGL,failed
3,MTYMNNEVTTKASKQRLEVHKPRPIFFETLTITQIQIFMQSYSRLMQFKVKDLMIDKRRLVEVPDNATLGDALNTMTILGIKPVANRVRAVPVAAKPGQWLGAGGSMIVELDKQSGSARKQYIGMVTMLDVVAHIAGDDGESGLDKKMAAPVSSIIGHCPEGLSLWSLNPNTSIMDCMEMLSKGIHRVLVPLDSNTENITGPELVESASAYAMLSQMDLISFFFDQSSQLHGILSHTVTDLSAIHNTVLALTSQARVKDAIQCMSIAMLNAVPIVEASGEGEDHKQLVDGKNRRVVGTFSASDLKGCHLATLRSWLPLNALEFVEKIPRTLLFTAATSTPGRELVTCHVTSTLAQVIHMVTTKRVHRVWVVDQNGGLQGLVSLTDIIAVVRSALLSGAPDLF,failed
4,MTYNKIMSAAESMEDGIEDMENNLESWGDDMNEYFGDEYEKAETISLDGIKNFFLKAEVGEVKIEISDRADEASYKIQRINPKYFDVEKKGDTISFEDNTPSKFFKNLGFNFKNNSPKIYISLPRNIVFNNFEIKSGVGELDIHDINVEKFNLSAGVGEVNIYDAKISKDAEIKAGVGEVNFKDSTVTNMDIKSGVGSFSFSGTALGKTSVKGGIGEVDLKINGSEKDYDFDVSAGLGEVIINGKKSKTFLADRQKSGSIAQNSITVKGGIGSISIRFKNLEHHHHHH,failed
5,MTYQALMFDIDGTLTNSQPAYTTVMREVLATYGKPFSPAQAQKTFPMAAEQAMTELGIAASEFDHFQAQYEDVMASHYDQIELYPGITSLFEQLPSELRLGIVTSQRRNELESGMRSYPFMMRMAVTISADDTPKRKPDPLPLLTALEKVNVAPQNALFIGDSVSDEQTAQAANVDFGLAVWGMDPNADHQKVAHRFQKPLDILELFK,not failed
6,MTYRAEVDGLRAIAVTLVILFHSGVEQFAGGFIGVDVFFVISGYLITTIVINDLENQKFSLGDFYERRIRRILPLLLVVIAVSYLMSWWLFLPQAHKDVGQLAVSSILSSSNILLYLKGHNYFGLEDQANPLFHTWSLGVEEQYYIVIPLLLMLLARGKNAFYLTFFIAVFALSLMAIVYTSNDPDFAFYMIFSRAWELATGSLLALVMRKAQVQSNDTLATIGIVLILASALLFEKSQDGAGITLLVPVIGSALVILFASKDNVCGKLLSLKWVVFVGLISYSLYLWHIPLFVFYRYMLDATQDVNISLYIAALFVLSYFTWRFVEKPFRSRKAMSMRTVSAVVVLLTLPLLTFGVIGHQNGGFPERSAFFEAMRINNGYGLDCNGNTDVNDVCSSAPQPTIAVLGNSHSMVYVKRLSEVTPTGVVQLTQDSCAVGYVDILEAAGSISCRQFFKQAVDTILRTPSIRRVVISSNFNKELSQADYEASLTGLLNELEGKEVVVFGPTPSAPFAVGECLWKARLFGEQEESVCDFSPKRHHPQNVAKLVNYFDRFEHVEFVDLTDAICRNGVCRMKVGANNAMYTDDSHLSYKGAELVLGHYHNSTNETQQFTYDRQ,failed
7,MTYRDFIGRLKENGKLVEIQQPVSPIFEASRIAKKTKGPVLFHNVSGSKVIMNLLGSRDELSSMLGVPKEEIIKKLSEVSPEGEVRLVPGSPTLEVIESEVDLTKLPILTHFEKDGAPYITAGIVVSEYEGVMNASIHRLMLVGKDKLAARLVPPRHTYLLHKKAAEKGETLPVAIVLGCDPTIIYATSTRVPAGKEFEYAAALRGTPVEVFECSNGIKVPHSEIILEGYIDTKERVDEGPFVDITGTYDMVRKEPVIHITRIIHRKDPIYHGILPAGPEHLLMMGVPYEPRIYRAVGEVTTVKNVVLTEGGCCYLHAVVQIEKQTEGDAKNAIMAAFAAHTSLKHVVVVDEDINIFDPNDVEFAIATRVKGDMDILTITNVRGSSLDPRGASDGTTTKVGIDATKVLIEKENFERAIIPEELEHHHHHH,failed
8,MVAARPAERSGDPAAVRVPVPSAWWVLIGGVIGLFASMTLTVEKVRILLDPIYVPSCNVNPIVSCGSVMTTPQASLLGFPNPLLGIAGFTVVVVTGVLAVAKVPLPRWYWIGLAVGILVGVAFVHWLIFQSLYRIGALCPYCMVVWAVIATLLVVVASIVFGPMRENRGSQERVGARLLYQWRWSLATLWFTTVFLLIMVRFWDYWSTLI,failed
9,MVAGFTVHSGPHHVPHRDMTHHSRPPGHAPRVTILMPVYNGEKYLAAAMESILDQTFRDFILLIIDDGSSDSSLAIARSFGDPRVQVERNPKNLGLVKTLNRGLDLVQTEFVARMDCDDIALPDRLEKQIAFLDENPDIGMCGTAYELFHESLRQTIRPPCRHEEIVYGLLDDNVFLHSSVIVRMEVLNRHGLRYREDYRLAEDYELWARLARYTHIGNLPQVLVRYRSHPENVSNTNKGEQIATRDRVRLEHLESFGLAPAADQKTLHIDLFSLAFQGSPDQLADARRWLEALARAVSTRCGLPLGRLHRDFALLWYSACGRSAHHGLTVLFSYLKSAMAWKGPKSYILKLLFRCLMRDPIPAVTKLEHHHHHH,not failed
10,MVAVWSAVAALLGVLINNSLSLVIKDYTVQEWRLGIAGYNGAIVGMYWGDSIFSIMGLCLFLVTLLICLLIEFRLRALLIPKQLPILSLPAMVSILVMVFTISLFSFDTNHLLFTGAAEPVLQTYSREVAIILVVSAMAYQYPLATLQTLGISLTGGLVAQWLTGLNLYALVDLWAINLVLAYFSIKTLFLKHARLASLAATFNALLAWIIWYFWFITGLEQLSAPLLIPFIMSSLITLSLYRQYINHNLLQSELWRTFKLMLINRLRAKQCVAITGSGIRKGTLPDYPSGQWLDPKVPITSYTLAEFKASKRCRYLYWKASYDYYQQALTINKNNIDEQLDYLLNHYLSGLFTETVDSLFNTEQHPVYECYGSIKRLYCLDCAKQQAWPPIPLWSQRDLHCQHCSGLLKPQILAADENIDSECYQALQKNMMECGCLLVIGVPTITPVVSMIIENANANKIPIIFIGTIPFGYFVEEKDVQLTGDIAHWLAEINGFINLLHPLKWGCKWKK,failed
11,MVDADGIYYLGPEGSFTHEAASLFKGKDLKAESTISLVFKRVYERESSIGIVPIENSLEGPVNETLDNLYNYDNIYVIGEIEKKIELVLAARSDNLSQIKRIYSHPHAFNEAREKLKELGFNEYIPVESTSKAAKIVSQDSEAAAICSNFAAKLYNLKVLITISSHNNYTRFIVLSKEMNSNGNKSMILFTVPHKPGALYKVLQVFYEYNINISMIYSRPLKSIPWQYYFYLEYEGGISNREFIEKLVKSTSVLKIKGSFSKLNNDPGF,failed
12,MVDDIFERGSKGSSDFFTGNVWVKMLVTDENGVFNTQVYDVVFEPGARTHWHSHPGGQILIVTRGKGFYQERGKPARILKKGDVVEIPPNVVHWHGAAPDEELVHIGISTQVHLGPAEWLGSVTEEEYRKATEGK,not failed
13,MVDINRRGALGSLLAGAGLAALPASAEAAQMGLLPAKPTSGPTWTTGIEGQRKADLGDGTFLNPILTGDRPDPSILKDGADYYMTHSSFDAYPGLLIWHSRDLVNWTPVTTTLKTNVGSIWAPELCKHKGRYYIYLPAKFPGNNTSYVIWADKIEGPWSEPIDLKLPRYIDPGHIVDEAGERWLFLSGGDRIKLAPDGLSTVGKPEHVYDPWRYPDDWDVEGFSPEGPKLMRRGEYFYMITAVGGTAGPPTGHMVIAARAKSLAGPWENHPRNPLVRTTDNAEKWWSRGHATLVEGPTPGDWWTVYHGYENGYYTLGRQTLLAPVTWTADGWFDIGGGDLSQPIKKPKGGKPGPHGMALSDDFSTDKYGVQWNFFDPKPGEQDRIKREGGVLTLKGAGEAPSTGSPLIFVNGDQAYEIECEIEIEPETRAGLILFYDRQLYCGLGFDAKNFVTHQYGIERGRPANPHGAKMLMRLRNNRHIVSFHTSGDGGKTWKRFDRGMEVSGYHHNVRGGFLMLKPGIYAAGKGSARFRGFKYRALP,failed
14,MVDIVCWAVKNGSAGRNLLLIANASSEDDQFWPFLQGLRYRGFKLFATIPDRTLPDDECLTAGIEDTGSDD,failed
15,MVDNYEYQVGASLPPDAPSYVVRKADSDFYQALKAGKYCYVFNSRQMGKSSLKVRVMQRLVNEGVACSSIDVSGQGSKDNVTQEQWYTGIVSKIVKDLQIAKPIEFRRTWWRDRHDISPVQRFDEFIEDVLLSSIQRHIIIFVDEIDSTLSLGFASEDFFALIRSCYNKRAENPAYKRLTFALLGVATPGDLIQDKTRTPFNIGEAIELDGFKIHDIEPLAKGLAGKVENPQAVMQEVLAWTGGQPFLTQRVCELLGKALSIEKRDFRSVDENQIIELVKEIIHNQIIDNWEANDKQEHLKTIRDRLLISEEISVALLGLYQQILQQVEMTADSSFEQMRLRLTGLVVQQQGKLRVYNQIYRNVFDLSWVENELGKLRFYADKLRAWVESNYQDNTCLLWGEDLEKARVWADGRKLSDVDYRFLSASVEAELNQKVVKAETRQNQALQEEEKAKQRLTEVERKINIGGGILALFVVGAIVAAIGAISANIERQQAQVVTDLERSSADLLRLRGNVGLDNLVEAMRSVKQLKQLVKNGNQLKDYPTVSPILALHNTLEYNREINQLKDDRRVQKQVFSPDTKIVANISDDGTTKLLNLQTGTITTLKHDKKVNNVAFSPNGQIVATASDDGTAKLWNLQGGKIATFKHNKEVNDVAFSPDGKTVGTASWDTAKLWNLQGGEIATLQYDSLVQNIVFSPDGKNVAIASYDSDVKLWNLQGKEIATIIHNKMTKYLSVVNNLFFSPDGKVVATTSRRDATTKLWNLQGKEIATFKYYPDIGIKNSVFSPNGKVVAIYSDDKTVNLYNLQGNTIATLKHNDKVEDIVFSPDGNTVATVSSYVHDGTVNLWNLKGNIIGTFKHQGLFQDISRLEFSPDGQTIATALLDNTAHLWNLQGKKIAIFTHYSQVLNLAFSPDGRTITTASSDGTAKLWNLQGGNIRILKHNDQINNIVFSPDGKTVATTSYDGTAKLWNLQKGEIVTLKHDGVVNDAVFSPDGKTIATTTSSDKTVKLWNLQGQLIATLKHKYEPDKEVVFSPDSNIIATSDDTAKLWNLQGQLIATLTNEGGVREVIFNPDGKSVLTTSYENAKLWNLEGQEIATFKHKHLGEVVFSPDGHTVATASVYRDSDISGSVKLWNLKGEEIITLQHGSFSDVLFSPDGKTIATVSTLSNTAKLWNLQGREIATLTHDGWINHISFSPDGKTIGIRSGDKTVKLWNLRGQEIATLKHNSSTIVSDPIFSPDGKTIATVSLDRTVRLWTEVRDGSWQQFAEYQSRRVVFSPDNKLIAIEGNYFVQLRRVQSLDSLLARGCNDLKEYLASRPDLRKEICPDNK,failed
16,MVEEVQKHSVHTLVFRSLKRTHDMFVADNGKPVPLDEESHKRKMAIKLRNEYGPVLHMPTSKENLKEKGPQNAPDSYPHKQYPANQGQDVEYLVTGTHPYPPGPGVALTADTKIQRMPSESAAQSLAVALPSQTRVDANRTAPAGSEYRHPGASDRSQPTAMNSMIMETSNTKNSALMAKKAPTMPKPQWHPPWKLYRVISGHLGWVRCIAVEPGNQWFVTGSADRTIKIWDLASGKLKLSLTGHISTVRGVIVSTRSPYLFSCGEDKQVKCWDLEYNKVIRHYHGHLSAVYGLDLHPTIDVLVTCSRDSTARIWDVRTKASVHTLSGHTNAVATVRCQAAEPQIITGSHDTTIRLWDLVAGKTRVTLTNHKKSVRAVVLHPLHYTFASGSPDNIKQWKFPDGGFIQNLSGHNAIINTLAVNTDGVLVSGADNGTMHLWDWRTGYNFQRVHAAVQPGSLDSESGIFACAFDRSESRLLTAEADKTIKVYREDETATEETHPVSWKPEIIKRKRF,failed
